Two molecules from patent EP4714971A1 (Shanghai Hansoh Biomedical Co., Ltd., dated 2024) can be followed below.

Test [1] concerns the target T1, human SEZ6 expressed on stably transfected CHO-K1 cells (human, UniProt Q53EL9 20-994).
T1 construct: also called CHO-SEZ6; hSEZ6
T1 sequence: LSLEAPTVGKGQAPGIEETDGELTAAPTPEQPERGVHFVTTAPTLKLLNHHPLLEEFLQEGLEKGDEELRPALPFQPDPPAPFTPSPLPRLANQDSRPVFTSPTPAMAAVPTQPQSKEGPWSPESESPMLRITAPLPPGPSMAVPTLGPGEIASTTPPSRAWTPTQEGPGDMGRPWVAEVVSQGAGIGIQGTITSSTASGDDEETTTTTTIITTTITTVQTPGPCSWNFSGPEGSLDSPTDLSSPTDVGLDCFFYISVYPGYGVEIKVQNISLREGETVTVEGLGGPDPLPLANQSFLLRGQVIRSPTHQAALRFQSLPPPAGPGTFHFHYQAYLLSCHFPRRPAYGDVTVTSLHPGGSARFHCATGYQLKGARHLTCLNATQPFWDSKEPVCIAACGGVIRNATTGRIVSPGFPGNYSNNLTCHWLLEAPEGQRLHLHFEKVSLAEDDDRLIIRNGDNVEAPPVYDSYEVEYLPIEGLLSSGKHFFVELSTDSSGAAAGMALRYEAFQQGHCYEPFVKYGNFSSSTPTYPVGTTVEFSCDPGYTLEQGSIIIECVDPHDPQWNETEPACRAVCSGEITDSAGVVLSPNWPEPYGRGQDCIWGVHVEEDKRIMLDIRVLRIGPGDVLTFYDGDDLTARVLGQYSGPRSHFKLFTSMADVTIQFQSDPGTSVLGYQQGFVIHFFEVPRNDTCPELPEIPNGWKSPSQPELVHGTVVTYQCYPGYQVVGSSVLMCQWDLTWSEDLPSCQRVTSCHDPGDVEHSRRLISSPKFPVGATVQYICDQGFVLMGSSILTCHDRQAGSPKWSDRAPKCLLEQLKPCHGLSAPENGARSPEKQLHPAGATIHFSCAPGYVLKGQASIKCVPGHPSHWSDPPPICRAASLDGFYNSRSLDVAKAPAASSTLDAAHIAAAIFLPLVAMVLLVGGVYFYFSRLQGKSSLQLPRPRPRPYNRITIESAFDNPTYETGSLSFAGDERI
Description: flow cytometry on CHO-K1 cells expressing human SEZ6.

Test [2] addresses T2, Recombinant human SEZ6-His6 protein (human, UniProt Q53EL9 20-925).
T2 construct: also called His-tagged SEZ6 antigen
T2 sequence: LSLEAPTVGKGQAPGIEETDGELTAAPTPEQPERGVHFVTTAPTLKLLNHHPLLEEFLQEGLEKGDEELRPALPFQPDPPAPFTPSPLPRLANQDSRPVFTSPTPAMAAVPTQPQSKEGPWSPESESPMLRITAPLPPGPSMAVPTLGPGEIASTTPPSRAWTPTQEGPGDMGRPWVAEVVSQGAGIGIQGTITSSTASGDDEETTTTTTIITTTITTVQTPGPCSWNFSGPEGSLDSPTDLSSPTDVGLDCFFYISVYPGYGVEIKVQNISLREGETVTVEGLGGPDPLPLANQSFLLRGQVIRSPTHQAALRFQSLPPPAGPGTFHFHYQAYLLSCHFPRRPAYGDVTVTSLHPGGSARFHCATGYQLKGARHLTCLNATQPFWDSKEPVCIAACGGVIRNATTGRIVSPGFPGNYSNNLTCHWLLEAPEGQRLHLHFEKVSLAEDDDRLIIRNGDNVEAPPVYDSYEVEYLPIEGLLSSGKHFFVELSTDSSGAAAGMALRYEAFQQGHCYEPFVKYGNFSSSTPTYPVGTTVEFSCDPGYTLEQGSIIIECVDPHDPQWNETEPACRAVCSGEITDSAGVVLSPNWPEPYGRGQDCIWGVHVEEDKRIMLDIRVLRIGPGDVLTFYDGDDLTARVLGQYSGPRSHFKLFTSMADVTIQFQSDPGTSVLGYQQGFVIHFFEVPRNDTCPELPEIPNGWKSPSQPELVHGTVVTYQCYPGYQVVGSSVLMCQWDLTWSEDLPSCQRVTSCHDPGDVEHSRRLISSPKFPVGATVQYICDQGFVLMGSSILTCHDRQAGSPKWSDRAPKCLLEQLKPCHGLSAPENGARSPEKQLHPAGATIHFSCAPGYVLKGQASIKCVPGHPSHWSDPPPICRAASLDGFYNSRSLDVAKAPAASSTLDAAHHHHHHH
Description: SPR (BIAcore 8K), antibody captured on protein A chip, SEZ6-His6 as analyte, 1:1 Langmuir model.

Test [3] has as its target T3, Recombinant monkey SEZ6-His6 protein (cynomolgus monkey, UniProt Q53EL9 20-925 (human entry)).
T3 construct: also called Cynomolgus monkey SEZ6-His6
T3 chain: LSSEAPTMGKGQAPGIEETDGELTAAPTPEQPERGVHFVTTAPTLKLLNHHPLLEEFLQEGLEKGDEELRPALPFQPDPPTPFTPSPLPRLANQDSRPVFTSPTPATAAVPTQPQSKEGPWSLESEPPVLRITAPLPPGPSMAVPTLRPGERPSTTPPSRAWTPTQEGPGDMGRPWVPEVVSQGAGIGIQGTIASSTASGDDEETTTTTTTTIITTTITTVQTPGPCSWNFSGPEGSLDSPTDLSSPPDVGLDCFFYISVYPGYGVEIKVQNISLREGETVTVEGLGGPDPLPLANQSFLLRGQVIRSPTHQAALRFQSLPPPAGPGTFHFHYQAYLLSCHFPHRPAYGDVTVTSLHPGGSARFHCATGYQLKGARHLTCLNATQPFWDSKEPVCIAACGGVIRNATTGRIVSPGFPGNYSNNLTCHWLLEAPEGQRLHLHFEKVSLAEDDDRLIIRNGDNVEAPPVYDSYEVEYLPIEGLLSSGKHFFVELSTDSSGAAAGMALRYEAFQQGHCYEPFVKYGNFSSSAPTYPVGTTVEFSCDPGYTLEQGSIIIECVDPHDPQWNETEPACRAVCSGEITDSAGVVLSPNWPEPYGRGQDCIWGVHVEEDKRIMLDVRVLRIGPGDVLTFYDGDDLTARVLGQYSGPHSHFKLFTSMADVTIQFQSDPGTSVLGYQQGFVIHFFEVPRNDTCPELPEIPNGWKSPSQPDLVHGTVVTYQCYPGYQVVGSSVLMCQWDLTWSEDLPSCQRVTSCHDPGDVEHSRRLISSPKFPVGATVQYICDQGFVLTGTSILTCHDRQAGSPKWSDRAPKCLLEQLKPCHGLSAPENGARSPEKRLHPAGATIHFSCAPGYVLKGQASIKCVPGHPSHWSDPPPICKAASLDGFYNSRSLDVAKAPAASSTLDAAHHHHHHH
Described as above.

B1: PR3178 (antibody, human IgG1, kappa, V domains shown)
VH: QVQLVQSGAEVKKPGASVKVSCKASGYTFTDYEMHWVRQAPGQGLEWMGGIDPESDNTVYNQKFKGRVTLTEDTSTSTAYMELRSLRSEDTAVYYCTRGDWYFDVWGQGTTVTVSS
VL: DIVMTQSPDSLAVSLGERATINCKSSQSLLNSRTRENYLAWYQQKPGQPPKLLIYWASTRESGVPDRFSGSGSGTDFTLTISSLQAEDVAVYYCGQSYNLFTFGQGTKLEIKR
notes: Humanized, human IgG1, kappa; also called humanized antibody of cAb3009
One may read the EC50 as the concentration giving half of the maximal effect. As usually defined, the Kd is a measure of binding affinity in units of concentration. For orientation: koff means a measure of how fast the partners let go of each other. For orientation: kon means a measure of how fast the partners come together. As to B1, in test [1], the EC50 came out at 0.05 nM and the MFImax is 1300. In test [2], the equilibrium dissociation constant (Kd) worked out at 1.61 nM, the koff amounted to 0.00064 s⁻¹ and the on-rate (kon) worked out at 396000 M⁻¹ s⁻¹. In test [3], the Kd was found to be 1.55 nM, the koff came to 0.000616 s⁻¹ and the kon came to 398000 M⁻¹ s⁻¹.

B2: hSC200 (hSC17.200) (antibody, human IgG1, kappa, V domains shown)
VH: EVQLVQSGAEVKKPGESLKISCKGSGYSFTSSWINWVRQMPGKGLEWMGRIYPGEGDTNYNGNFEGQVTISADKSISTAYLQWSSLKASDTAMYYCTRGLVMDYWGQGTLVTVSS
VL: EIVLTQSPATLSLSPGERATLSCRASQSVDYNGISYMHWYQQKPGQAPRLLIYAASNVQSGIPARFSGSGSGTDFTLTISSLEPEDFAVYYCQQSIEDPPTFGGGTKVEIKR
notes: also called control molecule; control antibody
In test [1], B2 yielded an EC50 of 0.26 nM and an MFImax of 1160. Also, in test [2], the Kd amounted to 59.9 nM, the koff came out at 0.00468 s⁻¹ and the kon turned out to be 78200 M⁻¹ s⁻¹. Further, in test [3], the dissociation constant (Kd) was found to be 57.9 nM, the koff turned out to be 0.00475 s⁻¹ and the on-rate (kon) amounted to 82000 M⁻¹ s⁻¹.
